How the values were obtained:
[1] = molecular target: T1, recombinant IsdB (iron-regulated surface determinant protein B), without signal peptide and sorting signal (Staphylococcus aureus, UniProt A6QG30); test: ELISA; conditions: both partners purified
T1 construct: source: E. coli BL21(DE3), pET15b, purified (HiTrap Talon column)

[2] = molecular target: T1, recombinant IsdB (iron-regulated …); test: BLI; conditions: both partners purified

T1 sequence (A6QG30 41-613): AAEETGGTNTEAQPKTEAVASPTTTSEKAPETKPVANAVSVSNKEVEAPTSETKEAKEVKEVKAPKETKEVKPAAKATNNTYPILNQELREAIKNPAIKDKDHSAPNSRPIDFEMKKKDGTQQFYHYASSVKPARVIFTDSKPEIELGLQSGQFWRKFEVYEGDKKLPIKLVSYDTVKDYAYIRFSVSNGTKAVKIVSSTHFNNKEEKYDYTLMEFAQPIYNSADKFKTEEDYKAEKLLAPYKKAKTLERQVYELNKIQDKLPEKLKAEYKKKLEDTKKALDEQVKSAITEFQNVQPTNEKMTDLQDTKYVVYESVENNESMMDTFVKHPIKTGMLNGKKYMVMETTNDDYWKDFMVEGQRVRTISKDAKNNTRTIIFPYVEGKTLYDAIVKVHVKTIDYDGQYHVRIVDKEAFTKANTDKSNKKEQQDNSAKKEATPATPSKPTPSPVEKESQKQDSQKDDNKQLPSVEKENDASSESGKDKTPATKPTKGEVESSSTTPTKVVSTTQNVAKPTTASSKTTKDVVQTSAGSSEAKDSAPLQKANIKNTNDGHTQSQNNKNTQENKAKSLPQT

Binder | binding result [2] | also measured
STAU-399 clonal variant 6 (recombinant mAb) (antibody, V domains shown, source: expressed recombinantly with the original light chain and purified) VH: HVQLVQSGAEVKKPGSSLKVSCKGSGGKLRGYGFSWGRQAPGQGLEWMGVIIPIFGAPTYAQKFQGRVTLAADESNNTVFMELSSLRSEDTAVYYCARDWPSITVAVDATNYGMDVWGQGTTVTVSS VL: QSALTQPRSVSGSPGQSVTISCTGTSNDVGYYDHVSWYQQHPGKAPKFIIYDVSKRPSGVPDRFSGSKSDNTASLTISGLQAEDEADYYCCSFAGSYTYVFGTGTKVTVL |  | fold lower EC50 value than the hybridoma IgG [1]: 18 fold; fold lower affinity than the hybridoma IgG [2]: 27 fold
STAU-399 mAb (hybridoma IgG) (antibody, V domains shown, also called STAU-399 IgG) VH: QVQLVQSGAEVKKPGSSLKVSCKVSGGNLRSYGISWVRQAPGQGLEWMGVIIPIFGTPTYAQKFQGRVTLAADDSNNIVFMELSSLRSEDTAVYYCARDWPSITVAVDATNYGMDVWGQGTLVTVSS VL: QSALTQPRSVSGSPGQSVTISCTGTSNDVGYYDHVSWYQQHPGKAPKFIIYDVSKRPSGVPDRFSGSKSDNTASLTISGLQAEDEADYYCCSFAGSYTYVFGTGTKVTVL | binds | 
STAU-281 mAb (IgG) (antibody, V domains shown) VH: QVQLVQSGAEVKRPGSSVRVSCKDSGDSFRRYVINWVRQAPGQGLEWMGGIIPIFDKAKSVQKFQDRLTITADESTSTSYMELSSLTSEDTAVYYCARKEDGRRDDVFDIWGQGTLVTVSS VL: EIVMTQSPATLSVSLGERATLSCRASHSVGSSLAWYQQKPGLAPRLLIYGVSTRATGIPARFSGSGSATEFTLTISSLQSEDLAAYHCQQYDNWPFTFGQGTKLEIK | binds | 
STAU-229 clonal variant 3 (recombinant mAb) (antibody, V domains shown, source: expressed recombinantly with the original light chain and purified) VH: EVQLVQSGAEVKKPGATVKIPCQVSGYTFTDYYIHWVQQAPGKGLEWMGLVDPEDGETRYAEKFQGRVTITADTSTDTAYMEMSSLTSEDAAVYYCAKPHCTTSSCQRVSGYYFGMDVWGQGTTVTVSS VL: QSALTQPPSASGSPGQSVTISCTGSSNDVGDYNFVSWYQQHPGKPPKLMIYEVTKRPSGVPDRFFGSKSGNTASLTVSGLQADDEADYYCSSYAGGNSVVFGGGTKLTVL |  | Kd [2]: 1.44 nM; fold lower avidity than the hybridoma IgG [2]: ~7 times
STAU-229 mAb (hybridoma cell line-expressed IgG) (antibody, V domains shown, also called STAU-229 IgG; hybridoma IgG) VH: EVQLVQSGAEVKKPGATMKISCKVSGYPFTDYYMHWVQQAPGKGLEWMGLIDPEDGETNYAEKFQGRVTITADTSTDTVYMELSSLRSEDTAVYFCAKPHCSSRTCQRVSGYYFGMDVWGQGTLVTVSS VL: QSALTQPPSASGSPGQSVTISCTGSSNDVGDYNFVSWYQQHPGKPPKLMIYEVTKRPSGVPDRFFGSKSGNTASLTVSGLQADDEADYYCSSYAGGNSVVFGGGTKLTVL | binds | 
STAU-307 clonal variant 1 (antibody, V domains shown, also called Variant 1 (STAU-307)) VH: QAQLMQSGAEVKKTGSSVKVSCTASGGTFNTNDLMWVRQAPGQGLEWMGGIVPVFGKPKYAKKFHGRLIITADEYMTTVYMELTSLTFDDTAIYFCARSGSTESPIQDIDFWGQGTQVTVSS VL: SYVLTQPPSVSVAPGQTATITCGGDNIATFSVHWYRQKPGQAPVLVVYDDLDRASGIPARFSGSNSGNTATLTISRVEPGDEADYFCQVWEISSDEYVFGPGTSVTVL | binds | 

Source: PMC6805997 (mBio, 2019)
